From patent US20130295090A1

B1: humanized MAb A3 (antibody)
VH: EVQLLESGAEVKKPGSSVRISCKVSGTPYSSYVMNWVRQAPGQGLEWMGVFVPSLDRALYAQNFQGRLSITADTTTTYMELTSLKFEDTAVYYCATDFSVGWLRPLDRWGQGTLVTVSSASTKGPSVFPLAPSSKSTSGGTAALGCLVKDYFPEPVTVSWNSGALTSGVHTFPAVLQSSGLYSLSSVVTVPSSSLGTQTYICNVDHKPSNTKVDKKVEPKSCDKTHTCPPCPAPPVEGGPSVFLFPPKPKDTLMISRTPEVTCVVVDVSHEDPEVKFNWYVDGVEVHNAKTKPREEQYNSTYRVVSVLTVLHQDWLNGKEYKCKVSNKALPAPIEKTISKAKGQPREPQVYTLPPSRDELTKNQVSLTCLVKGFYPSDIAVEWESNGQPENNYKTTPPVLDSDGSFFLYSKLTVDKSRWQQGNVFSCSVMHEALHNHYTQKSLSLSPGK
VL: not shown
B2: humanized MAb B2 (antibody)
VH: EVQLLEQSGSEVKKPGASVKVSCKASGYPFTDYAMSWVRQAPGQGLEYMGWIFTNSGNPTYAPGFAGRFVFSLDISVNTAYLHIDSLKPEDTAVYYCARGIVTPAASGDYFDSWGQGTLVTVSSASTKGPSVFPLAPSSKSTSGGTAALGCLVKDYFPEPVTVSWNSGALTSGVHTFPAVLQSSGLYSLSSVVTVPSSSLGTQTYICNVDHKPSNTKVDKKVEPKSCDKTHTCPPCPAPPVEGGPSVFLFPPKPKDTLMISRTPEVTCVVVDVSHEDPEVKFNWYVDGVEVHNAKTKPREEQYNSTYRVVSVLTVLHQDWLNGKEYKCKVSNKALPAPIEKTISKAKGQPREPQVYTLPPSRDELTKNQVSLTCLVKGFYPSDIAVEWESNGQPENNYKTTPPVLDSDGSFFLYSKLTVDKSRWQQGNVFSCSVMHEALHNHYTQKSLSLSPGK
VL: ELVLTQSPSSLSASIGDRVTITCRASQHISSWLAWYQQKPGKAPKPLIYAASSLKSGVPSRFSGSGSGTDFTLTISGLQPEDFATYYCQQYENSPVTFGGGTKVEIKRTVAAPSVFIFPPSDEQLKSGTASVVCLLNNFYPREAKVQWKVDNALQSGNSQESVTEQDSKDNTYSLSSTLTLSKADYEKHKVYACEVTHQGLSSPVTKSFN

Target: JEV strain SA14-14-2 envelope (E) protein on virions (Japanese encephalitis virus strain SA14-14-2), P0DOH7
Experiment: ELISA on JEV virions captured with HMAF, half-maximal binding, MAb
Conditions: remark: other sources report otherwise

Row | Binder | Kd [nM]
1 | B1 | 0.15
2 | B2 | 0.08
